According to paper PMC4932527:

Target: human LEPTIN receptor expressed in 293FT cells (human) (UniProt P48357)
Sequence of UniProt P48357 (P48357 22-1165): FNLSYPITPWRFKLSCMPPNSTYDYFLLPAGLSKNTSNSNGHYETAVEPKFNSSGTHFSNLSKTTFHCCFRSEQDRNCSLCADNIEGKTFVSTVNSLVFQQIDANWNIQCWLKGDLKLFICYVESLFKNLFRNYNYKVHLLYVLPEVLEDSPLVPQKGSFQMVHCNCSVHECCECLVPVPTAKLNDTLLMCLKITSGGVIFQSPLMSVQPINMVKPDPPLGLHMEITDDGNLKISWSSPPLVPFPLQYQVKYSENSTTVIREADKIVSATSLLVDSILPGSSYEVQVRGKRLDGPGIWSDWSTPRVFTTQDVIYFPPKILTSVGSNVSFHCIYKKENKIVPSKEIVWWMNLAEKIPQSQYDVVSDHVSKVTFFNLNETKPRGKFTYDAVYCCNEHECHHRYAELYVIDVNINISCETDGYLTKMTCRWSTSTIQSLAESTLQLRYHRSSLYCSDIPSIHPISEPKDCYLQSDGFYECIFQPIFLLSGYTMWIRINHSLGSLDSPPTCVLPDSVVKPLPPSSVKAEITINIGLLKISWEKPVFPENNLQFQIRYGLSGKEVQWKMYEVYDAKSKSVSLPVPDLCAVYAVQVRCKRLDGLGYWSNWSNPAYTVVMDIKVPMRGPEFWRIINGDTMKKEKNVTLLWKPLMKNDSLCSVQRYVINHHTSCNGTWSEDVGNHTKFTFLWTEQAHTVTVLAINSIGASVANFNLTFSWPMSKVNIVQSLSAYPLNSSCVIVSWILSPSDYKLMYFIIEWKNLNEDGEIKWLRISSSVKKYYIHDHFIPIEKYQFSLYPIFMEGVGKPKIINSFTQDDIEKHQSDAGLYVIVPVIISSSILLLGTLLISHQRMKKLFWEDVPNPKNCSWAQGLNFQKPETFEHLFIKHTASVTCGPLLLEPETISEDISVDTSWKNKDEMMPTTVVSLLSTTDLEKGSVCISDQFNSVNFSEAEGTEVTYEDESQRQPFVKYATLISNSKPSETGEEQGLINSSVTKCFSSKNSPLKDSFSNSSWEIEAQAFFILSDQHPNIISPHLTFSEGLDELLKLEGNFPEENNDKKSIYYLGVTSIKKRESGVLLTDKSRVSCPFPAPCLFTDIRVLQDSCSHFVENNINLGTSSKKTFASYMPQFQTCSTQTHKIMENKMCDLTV

- STAT3 luciferase reporter (pGL6-Stat3, normalised to renilla) in 293FT cells transfected with LEPR, treated with different concentrations of recombinant LEP; EC50 of activation: 3e-09 M
Substance: recombinant rat LEPTIN, wild type (from UniProt P50596 22-167) (ligand)
